Reference: publication PMC5109244, “A pH‐ and ionic strength‐dependent conformational change in the neck region regulates DNGR‐1 function in dendritic cells” (The EMBO Journal, 2016)

Biological target: the molecule itself
Assay: non-reducing SDS-PAGE and Western blot; supernatants of 293F cells with FLAG-tagged ECD proteins, Laemmli buffer without reducing agent, HRP-conjugated anti-FLAG detection

B1: human DNGR-1 ECD (extracellular domain of human DNGR-1) (domain or fragment)
chain: not shown
modifications: glycosylated (mobility augmented by PNGase F)
notes: human DNGR-1 (CLEC9A), single isoform, extracellular domain K57–V241; Disulfide-bonded homodimer; also called human ECD; human isoform; source: 293F cells, transient transfection
stoichiometry N: 2
